Changes are numbered by the printed parent chain. Where two headings read alike, the source gives them in different places.
B1: 1-2 (antibody, V domains shown)
VH: EVQLLESGGGLVQPGGSLRLSCAASGFTFSSQAMSWVRQAPGKGLEWVSAISGSGGGTYYADSVKGRFTISRDNSKNTLYLQMNSLRAEDTAVYYCAKDRRFGEFDPWGQGTLVTVSS
VL: QSALTQPASVSGSPGQSITISCTGTSSGVGSYNLVSWYQQHPGKAPKLMIYEGIKRPSGVSNRFSGSKSGNTASLTISGLQAEDEADYYCCSYAGSSSFVVFGGGTKLTVL
notes: also called variant 1-2
B2: 1-10 (antibody, V domains shown)
VH: EVQLLESGGGLVQPGGSLRLSCAASGFTFSSYDMSWVRQAPGKGLEWVSVISGSGGSTYYADSVKGRFTISRDNSKNTLYLQMNSLRAEDTAVYYCAKGPLVGWYFDLWGQGTLVTVSS
VL: B1 VL with G28N, I54T
notes: also called variant 1-10
B3: SARS-CoV-2 variant 1-26 (antibody, V domains shown)
VH: EVQLLESGGGLVQPGGSLRLSCAASGFTFSSYAISWVRQAPGKGLEWVSAISGSGYSTYYADSVKGRFTISRDNSKNTLYLQMNSLRAEDTAVYYCARGAPDSSGYYFQGEVYFDYWGQGTLVTVSS
VL: B1 VL with G28D, S31G, I54T, Y93F, A94V, G95R, S98A, F99H
B4: 1-27 (antibody, V domains shown)
VH: EVQLLESGGGLVQPGGSLRLSCAASGFTFSSYAMTWVRQAPGKGLEWVSAISGSGGGTYYADSVKGRFTISRDNSKNTLYLQMNSLRAEDTAVYYCASSSSWQFDYWGQGTLVTVSS
VL: B1 VL with G28Y, S31H, I54S, K55R, S97Y, S98T, F99H, V100Y
notes: also called variant 1-27
B5: 1-31 (antibody, V domains shown)
VH: EVQLLESGGGLVQPGGSLRLSCAASGFTFSSYAMNWVRQAPGKGLEWVSAISGSGGSTFYADSVKGRFTISRDNSKNTLYLQMNSLRAEDTAVYYCTRPPYGDYGDYWGQGTLVTVSS
VL: B1 VL with G28D, S31K, I54S, K55Q, S97R, S98T, F99P
notes: also called variant 1-31
B6: 1-47 (antibody, V domains shown)
VH: B1 VH
VL: B1 VL
notes: also called variant 1-47
B7: SARS-CoV-2 variant 1-27 (antibody, V domains shown)
VH: B4 VH
VL: B1 VL with G28Y, S31H, I54S, K55R, S97Y, S98T, F99H, V100Y
B8: SARS-CoV-2 variant 1-47 (antibody, V domains shown)
VH: B1 VH
VL: B1 VL
B9: 1-5 (antibody, V domains shown)
VH: B1 VH
VL: B1 VL with G53A, I54S, S97Y, S98T, V100A
notes: also called variant 1-5
B10: 1-30 (antibody, V domains shown)
VH: B5 VH with N35T
VL: B1 VL with S27R, G28D, I54T, S97R, S98T, F99P
notes: also called variant 1-30
B11: SARS-CoV-2 variant 1-28 (antibody, V domains shown)
VH: B4 VH with A33G, T35S
VL: B1 VL with I54S, K55Q, S98T, F99H, V100Y
B12: 1-28 (antibody, V domains shown)
VH: B4 VH with A33G, T35S
VL: B1 VL with I54S, K55Q, S98T, F99H, V100Y
notes: also called variant 1-28
B13: 1-3 (antibody, V domains shown)
VH: B1 VH
VL: B1 VL with T25I, G28D, I54T
notes: also called variant 1-3
B14: 1-4 (antibody, V domains shown)
VH: B1 VH
VL: B1 VL with G28D, S31T, I54S, K55Q
notes: also called variant 1-4
B15: 1-7 (antibody, V domains shown)
VH: B2 VH
VL: B1 VL with G28D, V29F, I54N, S98T
notes: also called variant 1-7
B16: 1-29 (antibody, V domains shown)
VH: EVQLLESGGGLVQPGGSLRLSCAASGFTFSSYAMYWVRQAPGKGLEWVSAISGSAGSTYYADSVKGRFTISRDNSKNTLYLQMNSLRAEDTAVYYCARDTNDFWSGYSIFDPWGQGTLVTVSS
VL: QSALTQPASVSGSPGQSITISCTGTSSDIGSYNLVSWYQQHPGKAPKLMIYEGTKRPSGVSNRFSGSKSGNTASLTISGLQAEDEADYYCCSYAGSRTYVFGGGTKLTVL
notes: also called variant 1-29
B17: SARS-CoV-2 variant 1-29 (antibody, V domains shown)
VH: B16 VH
VL: B16 VL
B18: SARS-CoV-2 variant 1-17 (antibody, V domains shown)
VH: B16 VH
VL: B16 VL
B19: SARS-CoV-2 variant 1-8 (antibody, V domains shown)
VH: B2 VH
VL: B16 VL with S27N, I29V, T54S, T98Y, Y99V
B20: SARS-CoV-2 variant 1-37 (antibody, V domains shown)
VH: B5 VH with S30T, S49T
VL: B16 VL
B21: SARS-CoV-2 variant 1-41 (antibody, V domains shown)
VH: B2 VH
VL: B16 VL
B22: SARS-CoV-2 variant 1-32 (antibody, V domains shown)
VH: B5 VH with N35Y
VL: QSALTQPASVSGSPGQSITISCTGTSSDVGGYNLVSWYQQHPGKAPKLMIYEGNKRPSGVSNRFSGSKSGNTASLTISGLQAEDEADYYCCSYAGSSTFPVVFGGGTKLTVL
B23: 1-32 (antibody, V domains shown)
VH: B5 VH with N35Y
VL: B22 VL
notes: also called variant 1-32
B24: SARS-CoV-2 variant 1-21 (antibody, V domains shown)
VH: EVQLLESGGGLVQPGGSLRLSCAASGFTFSSYTMSWVRQAPGKGLEWVSIISGSGGSTYYADSVKGRFTISRDNSKNTLYLQMNSLRAEDTAVYYCAREGYRDYLWYFDLWGQGTLVTVSS
VL: QSALTQPASVSGSPGQSITISCTGTSSDVGSNNLVSWYQQHPGKAPKLMIYEGNKRPSGVSNRFSGSKSGNTASLTISGLQAEDEADYYCCSYAGSVVFGGGTKLTVL
B25: 1-23 (antibody, V domains shown)
VH: B24 VH with T33A, M34I
VL: QSALTQPASVSGSPGQSITISCTGTSNDVGSYNLVSWYQQHPGKAPKLMIYEGNKRPSGVSNRFSGSKSGNTASLTISGLQAEDEADYYCCSYAGSYTVFGGGTKLTVL
notes: also called variant 1-23
B26: 1-24 (antibody, V domains shown)
VH: B24 VH with T33A, S35N
VL: B25 VL with N27S, S31Y, S96G, Y97S, T98V
notes: also called variant 1-24

Key:
Test in all cases: phage ELISA
[1] = molecular target: T1, Acro COVID S1 (S1N-C82E8) (SARS-CoV-2, UniProt P0DTC2 16-685)
T1 construct: domain: S1

[2] = molecular target: T1, Acro COVID S1 (S1N-C82E8); remark: listed apart in the source
[3] = molecular target: T2, Acro COVID S1 (S1N-C82E8) (SARS-CoV-2, UniProt P0DTC2 16-685)
T2 construct: domain: S1 (subunit 1)

Binder	ELISA fold over background [1] [fold over background]	ELISA fold over background [2] [fold over background]	specificity ELISA, fold over background [3] [fold over background]
B1	1.8	1.8	
B2	17.4	17.4	
B3			1.4
B4	1.5	1.5	
B5	30.4	30.4	
B6	8.1	8.1	
B7			1.5
B8			8.1
B9	1.5	1.5	
B10	16.8	16.8	
B11			1
B12	1	1	
B13	1.6	1.6	
B14	1	1	
B15	6.8	6.8	
B16	1.1	1.1	
B17			1.1
B18			25.1
B19			12
B20			11.6
B21			4.5
B22			11.5
B23	11.5	11.5	
B24			19.5
B25	5.1	5.1	
B26	12.9	12.9	
